Measurements: patent publication US11673916B2, “Neuroprotective peptides and methods of their use” (University of Pittsburgh—Of the Commonwealth System of …, priority 2020, dated 2023)

Molecular target: T1, endogenous Kv2.1 channels (Rattus norvegicus, UniProt P15387)
T1 construct: in order to visualize the distribution of endogenous Kv2.1 channels; endogenous in cells; host or cells: primary rat cortical neurons
T1 sequence (P15387 1-857): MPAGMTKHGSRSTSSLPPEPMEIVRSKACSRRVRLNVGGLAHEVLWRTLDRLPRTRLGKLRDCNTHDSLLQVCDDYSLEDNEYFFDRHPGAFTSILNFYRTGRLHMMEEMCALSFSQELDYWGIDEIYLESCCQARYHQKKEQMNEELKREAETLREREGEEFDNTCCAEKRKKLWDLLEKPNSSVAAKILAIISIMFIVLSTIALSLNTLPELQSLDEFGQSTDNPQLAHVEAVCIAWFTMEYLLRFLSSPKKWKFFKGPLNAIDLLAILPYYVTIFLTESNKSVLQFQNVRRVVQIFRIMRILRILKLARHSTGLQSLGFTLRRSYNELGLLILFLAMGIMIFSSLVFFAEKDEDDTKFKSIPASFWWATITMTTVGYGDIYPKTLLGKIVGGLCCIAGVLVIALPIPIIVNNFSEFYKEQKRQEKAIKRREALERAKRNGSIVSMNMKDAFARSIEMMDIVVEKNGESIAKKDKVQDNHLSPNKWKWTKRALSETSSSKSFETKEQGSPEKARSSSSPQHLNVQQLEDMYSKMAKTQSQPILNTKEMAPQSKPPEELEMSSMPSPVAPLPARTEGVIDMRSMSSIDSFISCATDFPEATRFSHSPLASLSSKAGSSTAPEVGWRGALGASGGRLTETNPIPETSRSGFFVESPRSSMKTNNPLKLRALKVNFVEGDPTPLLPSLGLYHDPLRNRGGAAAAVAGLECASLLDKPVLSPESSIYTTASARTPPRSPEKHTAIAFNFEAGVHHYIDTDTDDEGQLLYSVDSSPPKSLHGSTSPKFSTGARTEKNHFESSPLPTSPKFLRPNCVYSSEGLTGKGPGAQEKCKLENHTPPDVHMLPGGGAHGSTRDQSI
Experiment: Immunocytochemistry of endogenous Kv2.1 channel clusters in fixed cortical neurons
Type: cell-based
Conditions: 10 μM, three-hour treatment, mean±SEM (FIG. 10B)
Experimental: The in vitro Kv2.1 immunofluorescence experiment (FIG. 10) was carried out in DIV 21-26 primary rat neuronal cultures, as described above. Each coverslip was treated with either TAT-DP-2 or TAT-Sc-2 in its individual well to reach a final concentration of […] 3 hours, coverslips were transferred to PBS and immediately fixed with 4% paraformaldehyde/4% sucrose for 15 minutes. Coverslips were rinsed with PBS 3 times and then permeabilized with 0.25% triton-X-100 for 15 minutes. Cells were rinsed with PBS 3 times and then blocked with 2% BSA/10% normal goat serum for 1 hour at room temperature. […]
To analyze Kv2.1 distribution in live primary cortical neurons, cells were transfected with both a tdTomato construct and a GFP-tagged Kv2.1 construct (O'Connell, et al., J Neurosci. 26: 9609-9618, 2006) and imaged on a Nikon A1+ confocal microscope (Nikon, Tokyo, Japan). […] For live images of transfected neurons, object count parameters were customized to define a Kv2.1 cluster as an area of high intensity GFP fluorescence (compared to background), measuring 0.05 μm^2 or larger (Schulien et al., J Physiol (Lond). 594: 2647-2659, 2016). Kv2.1 cluster density was calculated by normalizing the number of Kv2.1 clusters counted to the somatic area of each neuron (#Kv2.1 clusters/μm^2). […]

Q: How did the “mean Kv2.1 surface cluster density (endogenous channels)” value turn out when “YGRKKRRQRRRDFSSIST [TAT-Sc-2, TAT-linked scramble control peptide]” was run?
A: Its value is 0.056±0.005 #Kv2.1 clusters/μm^2 of neuronal soma.

Q: “YGRKKRRQRRRSIDSFTS [TAT-DP-2, TAT-linked declustering peptide 2]” was tested. Which “mean Kv2.1 surface cluster density (endogenous channels)” value did it give?
A: Its value is 0.030±0.003 #Kv2.1 clusters/μm^2 of neuronal soma.
